The assay has as its target T1, c-Met (mouse, UniProt P16056 25-1379).
T1 construct: whole, on cells; also called HGFR; HGF receptor
Kind of assay: confocal microscopy of cells stained with anti-IL-7R-alpha and anti-c-Met; co-localisation on scIL-7/HGF-beta-stimulated cells and on pre-pro-B cells of normal BM. An excerpt:
Consistent with these blocking experiments, approximately 60% of the scIL-7/HGF-beta culture-generated CLPs and pre-pro-B cells expressed both c-Met and the IL-7R, whereas more than 80% at the rIL-7 culture-generated pro-B cells expressed the IL-7R only (data not shown). […] However, as noted previously for native IL-7/HGF-beta, scIL-7/HGF-beta was able to “prime” pre-pro-B/pro-B cells to respond to rIL-7 (FIG. 32D), presumably by up-regulating the IL-7R-alpha chain. […] Direct evidence that both the IL-7R (alpha and gamma-c chains) and c-Met are major components of the receptor complex for IL-7/HGF-beta was provided on Western blots after purification of receptor proteins from culture-generated CLPs/pre-pro-B cells on a scIL-7/HGF-beta affinity gel (FIG. 34).

Here are results for one molecule from patent US20070122380A1 (UNIVERSITY OF CONNECTICUT, published 2007).

B1: IL-7R (alpha and gamma-c chains) (receptor, mouse)
chain 1: ESGNAQDGDLEDADADDHSFWCHSQLEVDGSQHLLTCAFNDSDINTANLEFQICGALLRVKCLTLNKLQDIYFIKTSEFLLIGSSNICVKLGQKNLTCKNMAINTIVKAEAPSDLKVVYRKEANDFLVTFNAPHLKKKYLKKVKHDVAYRPARGESNWTHVSLFHTRTTIPQRKLRPKAMYEIKVRSIPHNDYFKGFWSEWSPSSTFETPEPKNQGGWDPVLPSVTILSLFSVFLLVILAHVLWKKRIKPVVWPSLPDHKKTLEQLCKKPKTSLNVSFNPESFLDCQIHEVKGVEARDEVESFLPNDLPAQPEELETQGHRAAVHSANRSPETSVSPPETVRRESPLRCLARNLSTCNAPPLLSSRSPDYRDGDRNRPPVYQDLLPNSGNTNVPVPVPQPLPFQSGILIPVSQRQPISTSSVLNQEEAYVTMSSFYQNK
chain 2: WSSKVLMSSANEDIKADLILTSTAPEHLSAPTLPLPEVQCFVFNIEYMNCTWNSSSEPQATNLTLHYRYKVSDNNTFQECSHYLFSKEITSGCQIQKEDIQLYQTFVVQLQDPQKPQRRAVQKLNLQNLVIPRAPENLTLSNLSESQLELRWKSRHIKERCLQYLVQYRSNRDRSWTELIVNHEPRFSLPSVDELKRYTFRVRSRYNPICGSSQQWSKWSQPVHWGSHTVEENPSLFALEAVLIPVGTMGLIITLIFVYCWLERMPPIPPIKNLEDLVTEYQGNFSAWSGVSKGLTESLQPDYSERFCHVSEIPPKGGALGEGPGGSPCSLHSPYWPPPCYSLKPEA
notes: whole, on cells; also called IL-7 receptor
On to B1, for which the binding result is listed as “binds”.
